Test results: the supplement of paper PMC12764529
± gives the half width of the 95% confidence interval.

test: folding stability dG unfold from trypsin proteolysis; higher = more stable
Method in brief: (§1)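 Sequencing followed digestion of designed mini-proteins with trypsin and chymotrypsin, each at 11 concentrations in threefold dilutions together with a no-protease condition. The mini-proteins were under 80 residues, had no cysteine, sat in a PA-tagged cDNA display construct, and were kept only if AlphaFold2 dimer inter-PAE was above 15. From the counts, Bayesian fitting gave K50, and unfolding free energy was derived against a sequence-predicted unfolded-state K50 and a shared folded-state K50, per protease or combined.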

| Sequence | folding stability dG unfold [kcal/mol] |
| --- | --- |
| SAGGSAGGSAGGGVAFSSDTTETRIDTTDDDTIVITTTTYAPNPSSTTTTVTTVPPDVPLSAGGSAGGSAGG [r7_128_JUSTAS] | 1.24 ± 0.044 |
| SAGGSAMPLLKPPKTIRLRILFKVPEPGKELDITEEAVRELFNPFGAKVRIYRDGDYVLIEVEFVVSAGGSA [r15_377_TrMRF] | 4.03 ± 0.097 |
| SAGGSAGGSSKYIKFIIPANSPEAIEKAKELAEFIKKKYPGIKKIEVKYNPEKGYLEVIAEVESAGGSAGGS [r12_248_TrMRF] | 4.08 ± 0.28 |
| SAGGSAGGSAGGMMRIRIKIYNVETGEWKEIEIEVPESVKEITLEIELPEGWRIVEIEVESAGGSAGGSAGG [r7_687_TrROS_Hall] | 5.39 ± 0.52 |
| MKPLTPDEVKELAKFIANMIRRRMRENGIKDVEIPVKVEPDPNGWYWINVSITFKYNGKPIGRFPIEIWVRS [r1_364_TrROS] | 3.17 ± 0.045 |
| SAGGSAGGSAGGVSPEANIKEVSKDPKTGLTTSLAKDPNSDNEITITKDSSGNSSINISSAGGSAGGSAGGS [r10_450_JUSTAS] | 0.121 ± 0.038 |
| SAGGSAGGSFRIPKGDPNMKIRIIFQWPNGQPMPMEYTVTPDGTFKINIPGMPPNRIESIEIWSAGGSAGGS [r12_477_TrROS] | 1.98 ± 0.17 |
| SAGGSMEEEFAARGATVTIDPEKGVITVTFYEEVTQPDGTPVLRRKGTLTIEVPGNDPSQALAKALEESAGG [r13_924_JUSTAS] | 1.41 ± 0.032 |
| SASSSFTLPGLKLEVETQKVSTFPTPDGTPVVLYETTIHFLEVPESLRAEGKPLSLESSVKKLKVVPLPSAG [r14_942_JUSTAS] | 0.277 ± 0.14 |
| SAGMTEVAKEIADTLAEQFPPGYKIDDIKVQPLPDNMFRVPITIKRRDPNGKPRGPRQIEIWIPPEQFSAGG [r19_28_TrROS] | 0.755 ± 0.053 |
| SAGGSAGGKKVIVKIKIKVKDKETGEEKEIEITLEFETEEEAKAAIEALKALPPGVEIKIELLPSAGGSAGG [r6_999_TrROS_Hall] | 4.42 ± 0.21 |
| SAGGSAGGMVFENLSEEEAKIIAKNIAENFKKKYPNVKIKVEAEVYKLPNPKVIVVIKLEIEEESAGGSAGG [r6_787_TrMRF] | 2.55 ± 0.086 |
| SAGGSAMTKVTVTFDPVTGTYTIKTTDSKGPSEYPLPKSFLEKTPLSEVAKKLNLNISEFTIEPNPSAGGSA [r15_801_JUSTAS] | 0.771 ± 0.044 |
| SAGGGMSVSELKKFFPNLKPGATFVLKDPNSDRTGTGTLLSDGTIKVQLPGSEVTVPDDTLVVSISASAGGS [r8_162_JUSTAS] | 0.585 ± 0.043 |
| SAGMTIILVGPNAKEAVEKVAEELRKRDVGPPVTVLVLEPGGKPVLRARVERRPPDPDRFVVTVEPVESAGG [r19_85_TrMRF] | 0.689 ± 0.079 |
| SAGGMITATFTIDLGAGPVTFTFDITDIETALEKIKEYLKSQGIDAKLVSVSVDPANGTVPMKLSVPPSAGG [r13_567_JUSTAS] | 1.58 ± 0.043 |
| SAGGSGIEAAILEAVEKGLNPVELTFRLPEDGKLVVLKVEVLDVLDGGAIVKVEMEVYDPENPKKISAGGSA [r2_420_TrMRF] | 1.06 ± 0.089 |
| SAGGIPPNDPEYQQKMQLLKEIQNFAKEQQQNGRDVKIETIEINPEDGRVTITVQYPNGKKVTITIPSAGGS [r8_277_TrROS] | 1.79 ± 0.057 |
| SAGGMVTVTDPNGVKHEYKLKVKITFEKPDGKPVTVEIEFDNVTVEDIVKIAKEIESKGYKLVSIEISSAGG [r13_227_TrMRF] | 3.73 ± 0.34 |
| SAGGSAGGSAGGKDVRITVSPNNMRISIWKRDPNDGKWKPIGTIPMPPNDPDKALDQLKSAGGSAGGSAGGS [r10_275_TrROS] | -0.216 ± 0.18 |
| SAGGSAGGSATVTVERVGNRLLLSFPDGSYYVAELPGEAEVDLASGKITLPANSRVEPVPLERSAGGSAGGS [r20_158_TrMRF] | 0.0598 ± 0.02 |

test: folding stability dG unfold (combined trypsin and chymotrypsin); higher = more stable
Method in brief: as §1

| Sequence | folding stability dG unfold [kcal/mol] |
| --- | --- |
| SAGGSAGGSPPMKTYEHWIRFDSPEQAVEEVANHIQDHFGLEIKSVEIEYDPENGWVRVKIVISAGGSAGGS [r12_265_TrROS] | 3.12 ± 0.14 |
| SMKKTYTFPVTLVPKDGKASLTVNWYAPDGTSLGTQTKSASAEGNTVTATVTVTVDAPPGAKIPSITVNASA [r9_292_JUSTAS] | 0.353 ± 0.038 |
| SAGGSMSLEGVSTVSEEKFPEKPTTLVPLTYPDGTTVEANRTLDPVTGKWTLPVTTPDGTVVVVDESAGGSA [r2_490_JUSTAS] | 0.977 ± 0.089 |
| SAMKYVELKLTITVPKEKEEEIEKLKKALEKLGAEIVSVEVEYDEETEEVTVTVTIRIENLSEEELKKASAG [r14_956_TrROS_Hall] | 2.69 ± 0.086 |
| SAGGSAMIEIKVEVNGKTYRITIEKNEDGTLTLTVYDEKTGKKTEIEIPLENLEELKKLNVKRIEISAGGSA [r15_629_TrROS_Hall] | 3.09 ± 0.12 |
| SAGGSAGGSAGRRVTINHNPENGFFRVKVYPPKGKSQVYPIPMENLEEIKKNLPPGVEIVSAGGSAGGSAGG [r11_569_TrROS] | -0.102 ± 0.12 |
| SAMELRVESELFPDGRRRLVVLDPGDGAPVVTFIDLEPVDGGYRASITQIGPDPAVAERVARELGIPPESAG [r14_545_TrMRF] | 0.786 ± 0.082 |
| SAGGSATPEEIAKKFFENHPELEPVEVKLEKFKIPGLKIWVVKVEITLKFKDNSKKKIPVVAVFPVSAGGSA [r15_266_TrMRF] | 2.72 ± 0.074 |
| SAGGSPSMSPEELAKREKERILEELRKKGGSKTIPMKVEITVPDEKGNTTKYNIEINITVEVPEDKLSAGGS [r16_550_JUSTAS] | 0.974 ± 0.15 |
| SAMIEIPFSPDTPVEERLAMIKEAIEAAKAAGIEPKEITLIVPPDREDILEAVEEAGIPKERVKIKDQPSAG [r14_589_JUSTAS] | 1.24 ± 0.07 |
| SAGGSAGGSPIVVDSPEDIEKAIEEAIASGAKSIVEVGPNRVRVVFVIPGEPKVFVLELPLNGSAGGSAGGS [r12_368_TrMRF] | 1.79 ± 0.11 |
| SAGGSASIEIPVGDKPVRIEILSLEPEGERVRARAVVYFPDDPEYREISGDLTLEELIDAILEAIGSAGGSA [r15_944_TrMRF] | 1.21 ± 0.074 |
| SAGGNKATLTVSEDNYPVLLLELYAPDGELIATAPVLLDPEKGGLTAADLERLLKEIDVPPDVEVNIASAGG [r13_479_TrMRF] | 1.32 ± 0.091 |
| SAGGSAGGDKAVIVDFNPIEPEAVIYFPKTGKAIKFKFDSLEELRDSIEPSGIPVEIVITPPELSAGGSAGG [r6_27_TrMRF] | 0.141 ± 0.19 |
| SAGGSAGGSAGKDIAKNIPPGAKILPIEPQPRGGGLYVKIEIEMPDPNGKKEKVTFTFPISAGGSAGGSAGG [r17_140_TrROS] | 0.366 ± 0.26 |
| SAGGSAPVVVVVTPKNGKPIKLKFKFTKKEEAEAAVEEIKKALPKNTKVEAFYVDEEVVKEDKEYLSAGGSA [r15_469_TrMRF] | 1.71 ± 0.054 |
| SAGGSAPPNWRRIEITFYIPPGQPTVSELADHIAKRIGFPVTGVEIDKVERNPDGAYEVKVSIIVPSAGGSA [r15_654_TrROS] | 2.75 ± 0.15 |
| SAGGLSYIELEVEFPGGGSFEEAKARAEKLAEEVRKKLGLKEVKIEIKKNPDGSYRVKITIKVPSKLSAGGS [r8_3_JUSTAS] | 3.02 ± 0.14 |
| SAGGSAGGSAGMPEVEVEVKIIKFDKEKNVFVIEVTDKKTGKRVTLTIKNGKIELKVEEPSAGGSAGGSAGG [r17_370_TrROS_Hall] | 3.7 ± 0.19 |
| SNPWVEITIYFPMRPDPNGKMQPLSPSELLEELLKQGFPIKDIDIDEVTDNYIPITIRIDAKDGKIEIEWSA [r9_225_TrROS] | 2.85 ± 0.19 |
| SGKDTLILELVLEVDSEEQAQAIRDIFEALGYKVEVRVFPLPDGLIVFVRVEVPVPPPPPSLEDPELLAKSA [r9_863_TrMRF] | 2.57 ± 0.15 |

| Sequence | folding stability dG unfold [kcal/mol] |
| --- | --- |
| SAGGSAGGSAGGGVAFSSDTTETRIDTTDDDTIVITTTTYAPNPSSTTTTVTTVPPDVPLSAGGSAGGSAGG [r7_128_JUSTAS] | 0.75 ± 0.14 |
| SAGGSAMPLLKPPKTIRLRILFKVPEPGKELDITEEAVRELFNPFGAKVRIYRDGDYVLIEVEFVVSAGGSA [r15_377_TrMRF] | 3.85 ± 0.15 |
| SAGGSAGGSSKYIKFIIPANSPEAIEKAKELAEFIKKKYPGIKKIEVKYNPEKGYLEVIAEVESAGGSAGGS [r12_248_TrMRF] | 3.96 ± 0.17 |
| SAGGSAGGSAGGMMRIRIKIYNVETGEWKEIEIEVPESVKEITLEIELPEGWRIVEIEVESAGGSAGGSAGG [r7_687_TrROS_Hall] | 5.32 ± 0.14 |
| MKPLTPDEVKELAKFIANMIRRRMRENGIKDVEIPVKVEPDPNGWYWINVSITFKYNGKPIGRFPIEIWVRS [r1_364_TrROS] | 3.57 ± 0.074 |
| SAGGSAGGSAGGVSPEANIKEVSKDPKTGLTTSLAKDPNSDNEITITKDSSGNSSINISSAGGSAGGSAGGS [r10_450_JUSTAS] | 0.813 ± 0.073 |
| SAGGSAGGSFRIPKGDPNMKIRIIFQWPNGQPMPMEYTVTPDGTFKINIPGMPPNRIESIEIWSAGGSAGGS [r12_477_TrROS] | 1.95 ± 0.21 |
| SAGGSMEEEFAARGATVTIDPEKGVITVTFYEEVTQPDGTPVLRRKGTLTIEVPGNDPSQALAKALEESAGG [r13_924_JUSTAS] | 1.96 ± 0.12 |
| SASSSFTLPGLKLEVETQKVSTFPTPDGTPVVLYETTIHFLEVPESLRAEGKPLSLESSVKKLKVVPLPSAG [r14_942_JUSTAS] | 0.391 ± 0.2 |
| SAGMTEVAKEIADTLAEQFPPGYKIDDIKVQPLPDNMFRVPITIKRRDPNGKPRGPRQIEIWIPPEQFSAGG [r19_28_TrROS] | 0.532 ± 0.11 |
| SAGGSAGGKKVIVKIKIKVKDKETGEEKEIEITLEFETEEEAKAAIEALKALPPGVEIKIELLPSAGGSAGG [r6_999_TrROS_Hall] | 4.19 ± 0.28 |
| SAGGSAGGMVFENLSEEEAKIIAKNIAENFKKKYPNVKIKVEAEVYKLPNPKVIVVIKLEIEEESAGGSAGG [r6_787_TrMRF] | 3.09 ± 0.15 |
| SAGGSAMTKVTVTFDPVTGTYTIKTTDSKGPSEYPLPKSFLEKTPLSEVAKKLNLNISEFTIEPNPSAGGSA [r15_801_JUSTAS] | 1.14 ± 0.092 |
| SAGGGMSVSELKKFFPNLKPGATFVLKDPNSDRTGTGTLLSDGTIKVQLPGSEVTVPDDTLVVSISASAGGS [r8_162_JUSTAS] | 0.321 ± 0.13 |
| SAGMTIILVGPNAKEAVEKVAEELRKRDVGPPVTVLVLEPGGKPVLRARVERRPPDPDRFVVTVEPVESAGG [r19_85_TrMRF] | 1.27 ± 0.098 |
| SAGGMITATFTIDLGAGPVTFTFDITDIETALEKIKEYLKSQGIDAKLVSVSVDPANGTVPMKLSVPPSAGG [r13_567_JUSTAS] | 1.56 ± 0.12 |
| SAGGSGIEAAILEAVEKGLNPVELTFRLPEDGKLVVLKVEVLDVLDGGAIVKVEMEVYDPENPKKISAGGSA [r2_420_TrMRF] | 1.83 ± 0.1 |
| SAGGIPPNDPEYQQKMQLLKEIQNFAKEQQQNGRDVKIETIEINPEDGRVTITVQYPNGKKVTITIPSAGGS [r8_277_TrROS] | 1.66 ± 0.064 |
| SAGGMVTVTDPNGVKHEYKLKVKITFEKPDGKPVTVEIEFDNVTVEDIVKIAKEIESKGYKLVSIEISSAGG [r13_227_TrMRF] | 4.74 ± 0.22 |
| SAGGSAGGSAGGKDVRITVSPNNMRISIWKRDPNDGKWKPIGTIPMPPNDPDKALDQLKSAGGSAGGSAGGS [r10_275_TrROS] | -0.446 ± 0.18 |
| SAGGSAGGSATVTVERVGNRLLLSFPDGSYYVAELPGEAEVDLASGKITLPANSRVEPVPLERSAGGSAGGS [r20_158_TrMRF] | 0.743 ± 0.029 |
